From US20040191887A1 (WISCONSIN ALUMNI RESEARCH FOUNDATION, published 2004)

T1: botulinum neurotoxin E (Clostridium botulinum, UniProt Q00496 2-1251)
T1 sequence: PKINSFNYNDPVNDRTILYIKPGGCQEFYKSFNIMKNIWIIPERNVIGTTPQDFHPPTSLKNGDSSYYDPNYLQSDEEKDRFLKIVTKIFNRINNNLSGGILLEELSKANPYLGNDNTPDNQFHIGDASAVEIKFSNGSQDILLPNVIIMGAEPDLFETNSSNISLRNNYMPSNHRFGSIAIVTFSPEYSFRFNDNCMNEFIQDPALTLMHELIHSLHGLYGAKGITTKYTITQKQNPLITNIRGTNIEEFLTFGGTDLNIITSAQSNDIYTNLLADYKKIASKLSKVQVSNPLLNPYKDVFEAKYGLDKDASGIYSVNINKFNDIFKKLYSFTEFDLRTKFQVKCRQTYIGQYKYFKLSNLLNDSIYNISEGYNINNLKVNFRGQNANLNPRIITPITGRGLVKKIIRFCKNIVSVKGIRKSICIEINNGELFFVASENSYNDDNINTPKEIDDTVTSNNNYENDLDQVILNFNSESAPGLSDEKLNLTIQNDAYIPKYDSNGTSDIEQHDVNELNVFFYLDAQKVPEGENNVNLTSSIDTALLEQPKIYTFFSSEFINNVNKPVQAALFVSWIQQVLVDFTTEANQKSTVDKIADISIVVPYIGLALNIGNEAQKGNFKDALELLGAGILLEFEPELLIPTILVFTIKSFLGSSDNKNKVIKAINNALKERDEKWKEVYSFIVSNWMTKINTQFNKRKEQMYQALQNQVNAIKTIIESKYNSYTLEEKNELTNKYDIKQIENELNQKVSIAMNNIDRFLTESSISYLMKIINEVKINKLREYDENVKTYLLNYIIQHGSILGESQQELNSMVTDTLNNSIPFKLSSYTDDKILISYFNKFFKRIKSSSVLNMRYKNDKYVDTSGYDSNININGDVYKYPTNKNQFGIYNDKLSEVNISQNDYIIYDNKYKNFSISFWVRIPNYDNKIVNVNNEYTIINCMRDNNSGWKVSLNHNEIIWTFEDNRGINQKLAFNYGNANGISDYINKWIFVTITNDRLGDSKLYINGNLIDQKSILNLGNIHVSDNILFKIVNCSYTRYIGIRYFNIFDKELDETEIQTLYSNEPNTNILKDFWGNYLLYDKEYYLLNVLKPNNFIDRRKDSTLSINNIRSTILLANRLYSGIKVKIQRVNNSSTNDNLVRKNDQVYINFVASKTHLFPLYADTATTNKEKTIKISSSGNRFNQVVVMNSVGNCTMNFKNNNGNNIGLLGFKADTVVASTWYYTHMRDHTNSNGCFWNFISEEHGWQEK

B1: GST fusion of rat synaptotagmin IV lacking the C2B domain (receptor)
chain: MAPITTSRVEFDEIPTVVGIFSAFGLVFTVSLFAWICCQRRSAKSNKTPPYKFVHVLKGVDIYPENLSSKKKFGGDDKSEAKRKAALPNLSLHLDLEKRDLNGNFPKTNPKAGSSSDLENVTPKLFPETEKEAVSPESLKSSTSLTSEEKQEKLGTLFLSLEYNFEKKAFVVNIKEAQGLPAMDEQSMTSDPYIKMTILPEKKHKVKTRVLRKTLDPVFDETFTFYGVPYPHIQELSLHFTVLSFDRFSRDDVIGEVLVPLSGIELSDGKMLMTREIIKR
B2: GST fusion of rat synaptotagmin I lacking the C2B domain (receptor)
chain: MVSASHPEALAAPVTTVATLVPHNATEPASPGEGKEDAFSKLKQKFMNELHKIPLPPWALIAIAIVAVLLVVTCCFCVCKKCLFKKKNKKKGKEKGGKNAINMKDVKDLGKTMKDQALKDDDAETGLTDGEEKEEPKEEEKLGKLQYSLDYDFQNNQLLVGIIQAAELPALDMGGTSDPYVKVFLLPEKKKKFETKVHRKTLNPVFNEQFTFKVPYSELGGKTLVMAVYDFDRFSKHDIIGEFKVPMNTVDFGHVTEEWRDLQSA
B3: GST fusion of mouse synaptotagmin II lacking the C2B domain (residues 1-267) (receptor)
chain: MRNIFKRNQEPNVAPATTTATMPLAPVAPADNSTESTGPGESQEDMFAKLKEKFFNEINKIPLPPWALIAMAVVAGLLLLTCCFCICKKCCCKKKKNKKEKGKGMKNAMNMKDMKGGQDDDDAETGLTEGEGEGEEEKEPENLGKLQFSLDYDFQANQLTVGVLQAAELPALDMGGTSDPYVKVFLLPDKKKKYETKVHRKTLNPAFNETFTFKVPYQELAGKTLVMAIYDFDRFSKHDIIGEVKVPMNTVDLGQPIEEWRDLQGGE

Molecular target: T1, botulinum neurotoxin E
Assay: GST pull-down with and without gangliosides, immunoblot

Binder | binding result
B1 | no binding (tested: 30 nM; also 300 nM (data not shown))
B2 | no binding (tested: 30 nM; also 300 nM (data not shown))
B3 | no binding (tested: 30 nM; also 300 nM (data not shown))

Molecular target: botulinum neurotoxin A (Clostridium botulinum, UniProt P0DPI0 2-1296)
Sequence (P0DPI0 2-1296 limits assumed): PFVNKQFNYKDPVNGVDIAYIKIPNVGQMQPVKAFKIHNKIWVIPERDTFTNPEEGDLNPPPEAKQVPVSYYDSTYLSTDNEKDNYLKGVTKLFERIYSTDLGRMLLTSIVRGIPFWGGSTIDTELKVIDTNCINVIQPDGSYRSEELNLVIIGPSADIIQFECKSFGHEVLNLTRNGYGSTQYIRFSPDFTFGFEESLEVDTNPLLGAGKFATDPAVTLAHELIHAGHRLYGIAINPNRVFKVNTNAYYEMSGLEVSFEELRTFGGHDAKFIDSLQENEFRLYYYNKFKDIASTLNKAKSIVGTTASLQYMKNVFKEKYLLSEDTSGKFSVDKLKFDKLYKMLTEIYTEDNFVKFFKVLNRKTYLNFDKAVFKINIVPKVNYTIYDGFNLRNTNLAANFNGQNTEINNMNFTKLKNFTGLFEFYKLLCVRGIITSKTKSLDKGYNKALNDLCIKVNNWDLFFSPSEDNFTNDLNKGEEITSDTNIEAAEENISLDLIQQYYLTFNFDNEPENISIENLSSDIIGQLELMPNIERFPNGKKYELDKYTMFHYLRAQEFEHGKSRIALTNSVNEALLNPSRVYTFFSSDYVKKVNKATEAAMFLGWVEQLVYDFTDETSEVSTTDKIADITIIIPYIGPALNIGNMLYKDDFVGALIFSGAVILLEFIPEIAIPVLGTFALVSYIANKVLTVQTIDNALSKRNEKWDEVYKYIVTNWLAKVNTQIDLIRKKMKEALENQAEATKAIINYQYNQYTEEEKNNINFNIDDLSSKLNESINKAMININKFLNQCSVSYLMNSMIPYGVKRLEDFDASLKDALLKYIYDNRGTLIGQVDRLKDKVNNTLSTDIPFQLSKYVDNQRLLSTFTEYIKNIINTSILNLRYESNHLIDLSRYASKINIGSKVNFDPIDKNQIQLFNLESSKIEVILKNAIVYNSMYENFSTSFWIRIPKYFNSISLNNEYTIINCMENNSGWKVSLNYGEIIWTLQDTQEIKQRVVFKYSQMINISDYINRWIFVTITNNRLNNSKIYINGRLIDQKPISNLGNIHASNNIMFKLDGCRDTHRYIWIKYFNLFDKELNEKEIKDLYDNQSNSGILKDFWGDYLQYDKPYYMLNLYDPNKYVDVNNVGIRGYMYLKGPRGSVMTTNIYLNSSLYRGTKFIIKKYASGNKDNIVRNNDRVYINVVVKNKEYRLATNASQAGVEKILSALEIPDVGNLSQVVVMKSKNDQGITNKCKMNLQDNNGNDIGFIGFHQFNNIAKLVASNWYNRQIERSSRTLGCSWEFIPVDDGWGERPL
Assay: as above

Binder | binding result
B1 | no binding (tested: 30 nM; also 300 nM (data not shown))
B2 | no binding (tested: 30 nM; also 300 nM (data not shown))
B3 | no binding (tested: 30 nM; also 300 nM (data not shown))
